The text below walks through data of publication PMC9190012, “Heparin activation of protein Z-dependent protease inhibitor (ZPI) allosterically blocks protein Z activation through an extended heparin-binding site” (The Journal of Biological Chemistry, 2022).

B1: K284A: ZPI helix H site mutant (protein, UniProt Q9UK55 22-444, looked up, variant K284A)
Protein Z-dependent protease …: LAPSPQSPETPAPQNQTSRVVQAPKEEEEDEQEASEEKASEEEKAWLMASRQQLAKETSNFGFSLLRKISMRHDGNMVFSPFGMSLAMTGLMLGATGPTETQIKRGLHLQALKPTKPGLLPSLFKGLRETLSRNLELGLTQGSFAFIHKDFDVKETFFNLSKRYFDTECVPMNFRNASQAKRLMNHYINKETRGKIPKLFDEINPETKLILVDYILFKGKWLTPFDPVFTEVDTFHLDKYKTIKVPMMYGAGKFASTFDKNFRCHVLKLPYQGNATMLVVLMEAMGDHLALEDYLTTDLVETWLRNMKTRNMEVFFPKFKLDQKYEMHELLRQMGIRRIFSPFADLSELSATGRNLQVSRVLQRTVIEVDERGTEAVAGILSEITAYSMPPVIKVDRPFHFMIYEETSGMLLFLGRVVNPTLL
B2: K104A/R105A/K113A/K116A/K125A/R128A: ZPI mutant of the six basic residues in the helix C/D site (protein, UniProt Q9UK55 22-444, looked up, variant K104A R105A K113A K116A K125A R128A)
Protein Z-dependent protease …: B1 Protein Z-dependent protease … with K104A, R105A, K113A, K116A, K125A, R128A, A284K
B3: K260A/R263A/R305A/K308A/R310A: ZPI helix H site quintuple mutant (protein, UniProt Q9UK55 22-444, looked up, variant K260A R263A R305A K308A R310A)
Protein Z-dependent protease …: B1 Protein Z-dependent protease … with K260A, R263A, A284K, R305A, K308A, R310A
B4: K284A/R310A: ZPI helix H site double mutant (protein, UniProt Q9UK55 22-444, looked up, variant K284A R310A)
Protein Z-dependent protease …: B1 Protein Z-dependent protease … with R310A
B5: K253A/K260A/R263A/R305A/K308A/R310A: ZPI helix H site sextuple mutant (protein, UniProt Q9UK55 22-444, looked up, variant K253A K260A R263A R305A K308A R310A)
Protein Z-dependent protease …: B1 Protein Z-dependent protease … with K253A, K260A, R263A, A284K, R305A, K308A, R310A

Residue numbers refer to the chain shown, from its start. Names may count otherwise.

One assay deals with T1, FXa (Homo sapiens, UniProt P00742).
T1 construct: purchased Enzyme Research Laboratories
T1 sequence (P00742 235-488 limits assumed): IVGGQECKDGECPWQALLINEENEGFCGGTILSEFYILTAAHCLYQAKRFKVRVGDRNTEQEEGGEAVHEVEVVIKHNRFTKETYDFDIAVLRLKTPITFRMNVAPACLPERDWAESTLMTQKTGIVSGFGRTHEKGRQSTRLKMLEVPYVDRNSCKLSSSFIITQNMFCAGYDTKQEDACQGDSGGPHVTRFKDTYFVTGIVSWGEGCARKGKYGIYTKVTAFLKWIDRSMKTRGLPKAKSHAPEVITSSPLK
T1 sequence (P00742 41-179 limits assumed): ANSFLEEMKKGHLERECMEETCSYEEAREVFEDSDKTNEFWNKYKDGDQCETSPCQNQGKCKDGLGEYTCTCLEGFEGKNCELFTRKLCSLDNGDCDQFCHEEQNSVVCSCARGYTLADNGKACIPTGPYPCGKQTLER
Kind of assay: PZ-accelerated ZPI–FXa reactions: kinetics and stoichiometry of inhibition. It counts as biochemical. The note with it: PZ-accelerated. As to the method: (§1) Apparent second-order rate constants for unaccelerated and H50-accelerated ZPI–FXa reactions were measured in the absence and presence of the optimal H50 concentration under pseudo–first-order conditions by analyzing full ZPI–FXa reaction progress curves over the ZPI concentration range of 10 to 900 nM with ∼0.5 nM FXa. Full reaction progress curves were also measured for ZPI–FXa reactions in the presence of PZ equimolar with ZPI, 25 μM lipid, and 5 mM CaCl2, as a function of the ZPI concentration in the range of 10 to 40 nM. Identical reaction mixtures were quenched at varying reaction times with substrate, and the time course of protease inactivation was measured from the decrease in initial rates of substrate hydrolysis. The first-order rate of decrease in protease activity with time was computer fit by a single exponential decay function with a nonzero end point and kobs obtained from the fitted exponential decay constant. Apparent second-order association rate constants (ka,app) were obtained from the slopes of linear plots of kobs versus the ZPI concentration according to the equation, kobs=kd+ka,app × [ZPI]0
(§2) In which kd represents the rate constant for ZPI–FXa complex dissociation and [ZPI]o is the total ZPI concentration. kd was fixed at the experimentally determined value of 10^−4 s^−1 for WT and ZPI mutants as described ([18]).
(§3) Fixed concentrations of FXa (50–100 nM FXa) were reacted with increasing concentrations of ZPI, ranging from a approximately threefold to sevenfold molar excess, in the absence of cofactors or in the presence of either 1 μM H50 or PZ equimolar with ZPI, 25 μM lipid, and 5 mM CaCl2, in kinetics buffer at 25 °C in reaction volumes of 50 μl. After allowing sufficient time to reach a reaction end point, based on measured second-order associate rate constants (∼5–30 min), remaining proteolytic activity was measured by reacting an aliquot (5–20 μl) of the reaction mixtures with 1 ml of 100 μM Spectrozyme fXa (American Diagnostica) containing 50 μg/ml Polybrene and 5 mM EDTA and monitoring the rate of absorbance change at 405 nm. The apparent SI was determined from the fitted abscissa intercept of a linear plot of residual protease activity against the molar ratio of inhibitor to protease ([18]). Because the ZPI–PZ complex dissociates to a small extent over the reaction time, apparent SIs depend on the time of incubation. To correct for such complex dissociation, apparent SIs were multiplied by the factor, exp (−kd × t), where kd is the measured complex dissociation rate constant of 10^−4 s^−1 and t the fixed reaction time. Simulations verified the validity of this correction for small extents of dissociation. Reported SIs are average values of at least two independent measurements at different reaction times.
In the case of B1, the SI was determined as 3.3 ± 0.1 moles ZPI/mole FXa, the “ka,app × SI” value was 2.0 ± 0.1 × 10^7 M^−1 s^−1 and the “ka,app × SI relative to WT” value is on record as “(0.45)”.

For the molecule B2, the SI was found to be 7.7 ± 0.1 moles ZPI/mole FXa, the “ka,app × SI” value is 8.5 ± 0.9 × 10^6 M^−1 s^−1 and the “ka,app × SI relative to WT” value is “(0.19)”.

As to B3, the SI came to 4.5 ± 0.2 moles ZPI/mole FXa, the “ka,app × SI” value is on record as 1.8 ± 0.1 × 10^7 M^−1 s^−1 and the “ka,app × SI relative to WT” value was “(0.41)”.

As to B4, the SI is listed as 3.3 ± 0.1 moles ZPI/mole FXa, the “ka,app × SI” value is listed as 2.1 ± 0.2 × 10^7 M^−1 s^−1 and the “ka,app × SI relative to WT” value is “(0.48)”.

On to B5, for which the SI is listed as 7.4 ± 0.3 moles ZPI/mole FXa, the “ka,app × SI” value was 2.5 ± 0.2 × 10^7 M^−1 s^−1 and the “ka,app × SI relative to WT” value is recorded as “(0.57)”.

The assay is the same for the next values; noted with them: equimolar PZ, 25 μM phospholipid, 5 mM CaCl2, pH 7.4, 25 °C.
Take B1: the “ka,app” value is given as 6.2 ± 0.1 × 10^6 M^−1 s^−1.

As to B2, the “ka,app” value was 1.1 ± 0.1 × 10^6 M^−1 s^−1.

Turning to B3, the “ka,app” value is 3.9 ± 0.1 × 10^6 M^−1 s^−1.

B4: the “ka,app” value was 6.4 ± 0.4 × 10^6 M^−1 s^−1.

Consider B5, for which the “ka,app” value was 3.4 ± 0.1 × 10^6 M^−1 s^−1.

The same assay, now with this note: ratio of PZ-accelerated to unaccelerated ka,app × SI.
Consider B1, for which the PZ enhancement is recorded as 1733.

As for B2, the PZ enhancement is 904.

For the molecule B3, the PZ enhancement was found to be 2400.

Consider B4, for which the PZ enhancement is on record as 3317.

Consider B5, for which the PZ enhancement is reported as 8620.

For another assay, the target named is T1, FXa. As to the kind of experiment: H50 heparin-accelerated ZPI–FXa reactions: kinetics and stoichiometry of inhibition. It counts as biochemical. The following applies: 1 μM H50. As to the method:
Heparin accelerating effects on the kinetics of ZPI–FXa reactions were evaluated as a function of heparin concentration under pseudo–first-order conditions (i.e., with a large molar excess of inhibitor over protease) by incubating reaction mixtures of 100 μl containing 70 nM ZPI and ∼0.5 nM FXa in the absence or presence of varying levels of H50 ranging from 10^−9 to 10^−4 M in 20 mM Tris buffer (pH 7.4), 0.1 M NaCl, 0.1% PEG 8000, 0.1 mg/ml BSA, and 2.5 mM CaCl2 at 25 °C for reaction times of 2 to 5 min. Reactions were quenched by adding 1 ml of 50 μM Pefafluor FXa substrate (Centerchem, Inc) containing 50 μg/ml polybrene and 5 mM EDTA. The initial linear rate of substrate hydrolysis was monitored at an excitation wavelength of 380 nm and an emission wavelength of 440 nm. The observed pseudo–first-order rate constant for reactions (kobs) was calculated from the equation, kobs=In([vo-v∞]/[vt-v∞])/t
where vt and v∞ are the initial velocities of protease hydrolysis of the substrate after reaction with ZPI for the fixed reaction time and after reaching the reaction end point, respectively, vo is the velocity measured in control reactions without ZPI, and t is the fixed reaction time. The dependence of kobs on heparin concentration was computer fit by nonlinear least squares analysis by the ternary complex bridging model equation ([10]).
as §1, §2
as §3, with “Simulations verified the validity of this correction for small extents of dissociation. Reported SIs are average values of at least two independent measurements at different reaction times.” left out
Regarding B1, the SI was 2.4 ± 0.1 moles ZPI/mole FXa, the “ka,app × SI” value is 9.2 ± 0.9 × 10^5 M^−1 s^−1 and the “ka,app × SI relative to WT” value is “(0.77)”.

As to B2, the SI worked out at 7.8 ± 2.0 moles ZPI/mole FXa, the “ka,app × SI” value is given as 6.6 ± 2.7 × 10^4 M^−1 s^−1 and the “ka,app × SI relative to WT” value is “(0.06)”.

With B3, the SI is on record as 2.9 ± 0.4 moles ZPI/mole FXa, the “ka,app × SI” value is 4.9 ± 0.7 × 10^4 M^−1 s^−1 and the “ka,app × SI relative to WT” value was “(0.04)”.

Turning to B4, the SI stood at 1.9 ± 0.1 moles ZPI/mole FXa, the “ka,app × SI” value is recorded as 3.7 ± 0.4 × 10^5 M^−1 s^−1 and the “ka,app × SI relative to WT” value is “(0.31)”.

In the case of B5, the SI worked out at 4.0 ± 0.2 moles ZPI/mole FXa, the “ka,app × SI” value is 2.6 ± 0.3 × 10^4 M^−1 s^−1 and the “ka,app × SI relative to WT” value is “(0.02)”.

The same assay, now with this note: 1 μM H50, 2.5 mM CaCl2, pH 7.4, 25 °C.
For the molecule B1, the “ka,app” value is on record as 3.9 ± 0.2 × 10^5 M^−1 s^−1.

For the molecule B2, the “ka,app” value was 8.5 ± 1.3 × 10^3 M^−1 s^−1.

In the case of B3, the “ka,app” value was 1.7 ± 0.1 × 10^4 M^−1 s^−1.

On to B4, for which the “ka,app” value is listed as 2.0 ± 0.1 × 10^5 M^−1 s^−1.

On to B5, for which the “ka,app” value was 6.4 ± 0.5 × 10^3 M^−1 s^−1.

The assay is the same for the next values; noted with them: ratio of heparin-accelerated to unaccelerated ka,app × SI.
B2: the H50 rate enhancement was 7.0 fold.

Consider B3, for which the H50 rate enhancement was found to be 6.5 fold.

With B4, the H50 rate enhancement is listed as 59 fold.

The target of the next assay is T1, FXa. As to the kind of experiment: Unaccelerated ZPI–FXa reactions: kinetics and stoichiometry of inhibition. It counts as biochemical.
Details: not given
As to the method: as §1, §2, §3
As to B1, the SI worked out at 2.3 ± 0.2 moles ZPI/mole FXa, the “ka,app × SI” value is given as 1.2 ± 0.2 × 10^4 M^−1 s^−1 and the “ka,app × SI relative to WT” value was “(0.75)”.

Take B2: the SI stood at 3.4 ± 0.4 moles ZPI/mole FXa, the “ka,app × SI” value is 9.4 ± 1.6 × 10^3 M^−1 s^−1 and the “ka,app × SI relative to WT” value is on record as “(0.59)”.

In the case of B3, the SI worked out at 2.9 ± 0.3 moles ZPI/mole FXa, the “ka,app × SI” value is 7.5 ± 0.9 × 10^3 M^−1 s^−1 and the “ka,app × SI relative to WT” value is listed as “(0.47)”.

On to B4, for which the SI is 1.9 ± 0.2 moles ZPI/mole FXa, the “ka,app × SI” value is listed as 6.3 ± 1.3 × 10^3 M^−1 s^−1 and the “ka,app × SI relative to WT” value is recorded as “(0.39)”.

B5: the SI came to 3.2 ± 0.1 moles ZPI/mole FXa, the “ka,app × SI” value is recorded as 2.9 ± 0.2 × 10^3 M^−1 s^−1 and the “ka,app × SI relative to WT” value is listed as “(0.18)”.

The assay is the same for the next values; noted with them: absence of PZ, 2.5 mM CaCl2, pH 7.4, 25 °C.
As for B1, the “ka,app” value was 5.0 ± 0.3 × 10^3 M^−1 s^−1.

B2: the “ka,app” value was 2.8 ± 0.1 × 10^3 M^−1 s^−1.

Regarding B3, the “ka,app” value is reported as 2.6 ± 0.1 × 10^3 M^−1 s^−1.

For B4, the “ka,app” value is reported as 3.3 ± 0.3 × 10^3 M^−1 s^−1.

Take B5: the “ka,app” value is given as 9.2 ± 0.6 × 10^2 M^−1 s^−1.
